# Numbering of substitutions follows the chain as printed.
# T1: CEACAM6 on the surface of the tumor cells (HPAFII cells) (UniProt P40199 35-320)
# T1 construct: whole, on cells
# T1 sequence (looked up): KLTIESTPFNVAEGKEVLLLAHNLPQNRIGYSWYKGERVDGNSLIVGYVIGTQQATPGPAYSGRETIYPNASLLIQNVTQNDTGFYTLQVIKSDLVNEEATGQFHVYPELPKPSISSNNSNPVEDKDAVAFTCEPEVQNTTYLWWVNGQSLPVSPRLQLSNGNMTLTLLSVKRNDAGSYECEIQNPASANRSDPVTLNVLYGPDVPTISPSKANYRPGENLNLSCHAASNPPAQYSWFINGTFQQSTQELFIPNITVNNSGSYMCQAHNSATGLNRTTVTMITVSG
# T2: CEACAM5 on the surface of the tumor cells (HPAFII cells) (UniProt P06731 35-685)
# T2 construct: whole, on cells
# T2 sequence (looked up): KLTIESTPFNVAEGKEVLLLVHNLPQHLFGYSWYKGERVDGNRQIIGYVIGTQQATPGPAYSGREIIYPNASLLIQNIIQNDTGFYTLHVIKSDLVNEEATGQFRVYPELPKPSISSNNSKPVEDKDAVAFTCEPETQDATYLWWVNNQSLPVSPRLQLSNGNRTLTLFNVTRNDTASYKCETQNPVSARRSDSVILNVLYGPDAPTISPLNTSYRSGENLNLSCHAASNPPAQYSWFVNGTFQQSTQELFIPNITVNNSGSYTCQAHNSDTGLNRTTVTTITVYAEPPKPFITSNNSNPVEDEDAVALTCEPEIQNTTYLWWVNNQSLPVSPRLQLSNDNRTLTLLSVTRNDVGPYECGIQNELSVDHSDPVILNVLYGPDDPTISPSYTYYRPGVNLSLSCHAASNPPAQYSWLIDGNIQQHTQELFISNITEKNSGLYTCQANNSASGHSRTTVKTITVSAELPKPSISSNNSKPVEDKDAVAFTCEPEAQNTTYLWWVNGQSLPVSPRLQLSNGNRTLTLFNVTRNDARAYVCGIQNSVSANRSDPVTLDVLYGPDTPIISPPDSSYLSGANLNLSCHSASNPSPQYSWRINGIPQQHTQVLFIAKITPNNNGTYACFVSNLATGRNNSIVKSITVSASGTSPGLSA
# T3: human CEACAM5-his (ACRO CE5-H5226) (human, UniProt P06731 35-685)
# T3 construct: Bought protein; not shown: His tag
# T3 sequence (looked up): T2 sequence (looked up)
# T4: mouse CEACAM5 (mouse, UniProt Q3UKK2 35-947, limits assumed)
# T4 sequence (looked up): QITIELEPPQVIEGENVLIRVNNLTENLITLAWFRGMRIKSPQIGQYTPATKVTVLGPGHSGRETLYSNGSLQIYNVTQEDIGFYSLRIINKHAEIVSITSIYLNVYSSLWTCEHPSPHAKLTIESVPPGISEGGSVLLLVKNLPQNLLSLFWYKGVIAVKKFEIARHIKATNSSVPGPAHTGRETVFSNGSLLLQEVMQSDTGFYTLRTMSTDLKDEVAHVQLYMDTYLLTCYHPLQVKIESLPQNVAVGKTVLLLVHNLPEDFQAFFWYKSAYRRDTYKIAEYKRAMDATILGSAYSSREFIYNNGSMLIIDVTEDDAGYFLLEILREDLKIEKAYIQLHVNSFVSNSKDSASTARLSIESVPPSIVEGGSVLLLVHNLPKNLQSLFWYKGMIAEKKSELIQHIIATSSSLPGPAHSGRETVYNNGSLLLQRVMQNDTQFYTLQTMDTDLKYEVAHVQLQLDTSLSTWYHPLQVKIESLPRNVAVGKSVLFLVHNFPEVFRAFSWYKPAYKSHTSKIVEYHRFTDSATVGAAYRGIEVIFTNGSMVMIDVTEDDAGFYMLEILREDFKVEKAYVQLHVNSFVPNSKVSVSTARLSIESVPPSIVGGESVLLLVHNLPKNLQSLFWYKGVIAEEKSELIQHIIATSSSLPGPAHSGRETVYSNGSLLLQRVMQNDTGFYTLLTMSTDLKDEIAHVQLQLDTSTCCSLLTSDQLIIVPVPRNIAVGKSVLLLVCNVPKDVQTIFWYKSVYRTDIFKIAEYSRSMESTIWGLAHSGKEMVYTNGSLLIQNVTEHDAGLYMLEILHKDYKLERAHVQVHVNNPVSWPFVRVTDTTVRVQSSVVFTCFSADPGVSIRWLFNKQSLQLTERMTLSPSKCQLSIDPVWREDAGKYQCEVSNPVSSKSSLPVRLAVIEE
# B1: Antibody 9 (antibody, V domains shown)
# VH: EVKLVESGGGLVQPGGSLRLSCATSEITFIDYYMSWVRQPPGKALEWLGLIRNKANGYTTEYSESVKGRFTISRDKSQSILYLQMNTLRVEDSATYYCARDPGINWYFDVWGAGTTVTVSS
# VL: QNILSQSPTILSASPGEKVTMTCRASSSVSYMHWYQQKPGSSPKPWIYATSNLASGVPARFSGSGSGTSYSLTISRVEAEDVAIYFCQRWGYNPPTFGAGTKLELK
# notes: Mouse-derived hybridoma antibody; also called mouse-derived antibody 9
# B2: Antibody 10 (antibody, V domains shown)
# VH: QVQLQQSGPELVRPGVSVKISCKGSGYTFTDFAMHWVRQSHSKSLEWVGIITTYGGDTNYNQKFRGKATMTVDRSSSTVFLELARLTSEDSAIYYCARNRAYRFFYAMDYWGQGTSVTVSS
# VL: DIQMTQSPASLSASVGETVTITCGASENIYGALNWYQRKQGKSPHLLIYGATNLADGMSSRFSGSGSAGQYSLNISSLHPDDVATYYCQNVLFAPYTFGGGTRLEIK
# notes: Mouse-derived hybridoma antibody; also called mouse-derived antibody 10
# B3: Antibody 11 (antibody, V domains shown)
# VH: B2 VH with M34I, K43R, R74K
# VL: B2 VL with H45Q, N90S
# notes: Mouse-derived hybridoma antibody; also called mouse-derived antibody 11
# B4: Antibody I (antibody, human IgG1, kappa, V domains shown)
# VH: EVKLVESGGGLVQPGGSLRLSCATSEFTLIDYYMSWVRQSPGKALEWLGYIRNKVNGHTTDYIASVKGRFTISRDDSKNSLYLQMNSLKTEDTATYYCVRDPGINWYFDVWGQGTLVTVSS
# VL: QIVLTQSPATLSLSPGERATLSCRASSRVTYMHWYQQKPGSSPKPLISATSNLASGIPARFSGSGSGTDYTLTISSLEPEDFATYYCQQWSYNPPTFGGGTKLELKR
# notes: humanized from mouse-derived antibody 2; also called humanized antibody I
# Key:
# Human-CEACAM6 (AB)-His = molecular target: T5, Human-CEACAM6 (AB)-His (human, UniProt P40199 145-314); assay: ELISA on coated human CEACAM6 (AB), OD450
# T5 construct: Made in house, purified on a nickel column
# T5 sequence (P40199 other isoform, or with tags, fused parts or gaps limits assumed): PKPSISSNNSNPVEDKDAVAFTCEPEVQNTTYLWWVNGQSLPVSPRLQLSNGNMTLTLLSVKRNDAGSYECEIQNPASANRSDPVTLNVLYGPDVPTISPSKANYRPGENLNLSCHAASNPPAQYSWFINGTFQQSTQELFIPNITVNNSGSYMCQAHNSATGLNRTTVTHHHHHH
# Experimental: (§1) The binding activity of the antibodies to human CEACAM5, human CEACAM6, and human CEACAM6 (AB) proteins was detected by ELISA. The plate coated with proteins was incubated at 4° C. overnight, and the 96-well ELISA plate blocked with 2% PBS-BSA was added with the antibody to be detected and incubated at 37° C. for 1 h. After washing 3 times with PBS containing 0.05% Tween, the absorbance value of each well was read at wavelength 450 nm with the gradient-diluted mouse-derived candidate antibody as the primary antibody and anti-mouse-IgG-FC-HRP as the secondary antibody, and the absorbance value of each well was read at wavelength 450 nm after the TMB color development.
# [1] = molecular target: T1, CEACAM6 on the surface of the tumor …; assay: flow cytometry on HPAFII cells (Mean-FITC); the cells carry CEACAM5 and CEACAM6, signal not divided between the two
# Experimental: (§2) The antibody to be tested was taken as the initial concentration of 200 nM and diluted 5-fold with 6 gradients. The HPAFII cells (From USTC […] FOR ADVANCED STUDIES) in the incubator were taken out, and the cell suspension was transferred to a 15 mL centrifuge tube, centrifuged, and counted by resuspension in PBS. A blank control group (Blank), a negative control group (NC), an experimental group, a positive control group and the irrelevant antibody group were kept. […] The cell suspension was spread in a 96-well plate according to about 3×10⁵ cells/well. Centrifugation (1000 rpm, 5 min) was performed, followed by washing with PBS, re-centrifugation, and repeated twice to remove media residues. The supernatant was discarded, 100 μL of primary antibody solution and irrelevant antibody solution were added to the experimental group and irrelevant antibody group, respectively, and the cells were resuspended and incubated at room temperature for 1 h. The blank group, and the negative control group were incubated with an equal amount of PBS.
# (§3) After 1 h, PBS was added to wash twice. After the supernatant was discarded, 100 μL of fluorescent secondary antibody dilution (Mouse-derived secondary antibody from Abcam ab6785) was added to each sample group, except for the blank group which was added with 100 μL of PBS. After incubation at room temperature and protected from light for 0.5 h, centrifugation was performed and PBS added to wash the samples twice. After the supernatant was discarded, 120 μL of PBS was added to resuspend and sequentially flow cytometry was performed to detect the mean fluorescence intensity. The concentration of the antibody was logarithmically taken as the horizontal coordinate, and the Sigmoidaldose-response (VariableSlope) method (GraphPadPrism Software, GraphPadSoftware, San Diego, California) was chosen to perform a nonlinear regression to obtain the binding activity curves of the antibody on HPAFII cells.
# [2] = molecular target: T2, CEACAM5 on the surface of the tumor …; assay: as above
# Experimental: as §2, §3
# [3] = molecular target: T3, human CEACAM5-his (ACRO CE5-H5226); assay: ELISA on coated human CEACAM5, OD450
# Experimental: as §1
# mouse CEACAM5 = molecular target: T4, mouse CEACAM5; assay: ELISA on coated protein, OD450
# Experimental: The affinity of the antibodies to monkey CEACAM5, monkey CEACAM6, and mouse CEACAM5 proteins was determined by ELISA. The plates encapsulated with […] proteins were incubated at 4° C. overnight, and the antibodies to be detected were added to 96-well ELISA plates after being blocked with 2% PBS-BSA and incubated at 37° C. for 1 h. After washing 3 times with PBS containing 0.05% Tween, the absorbance value of each well was read at wavelength 450 nm with the antibody to be detected as the primary antibody and Goat anti-mouse IgG-FC-HRP as the secondary antibody, and the absorbance value of each well was read at wavelength 450 nm after the TMB color development. The specific binding to CEACAM5 and CEACAM6 of mouse and monkey was detected by Elisa method.
# [4] = molecular target: T1, CEACAM6 on the surface of the tumor …; assay: flow cytometry on HPAFII cells (Mean PE); the cells carry CEACAM5 and CEACAM6, signal not divided between the two
# Experimental: Centrifugation (1000 rpm, 5 min) was performed, followed by washing with PBS, re-centrifugation, and repeated twice to remove media residues. The supernatant was discarded, 100 μL of primary antibody solution and irrelevant antibody solution were added to the experimental group and irrelevant antibody group, respectively, and the cells were resuspended and incubated at room temperature for 1 h. The blank group, and the negative control group were incubated with an equal amount of PBS.
# as §3, with “(Secondary” for “(Mouse-derived secondary”, “ab98596)” for “ab6785)”
Binder,EC50 (read off the curve) (Human-CEACAM6 (AB)-His),EC50 (read off the curve) [1],EC50 (read off the curve) [2],EC50 (read off the curve) [3],OD (mouse CEACAM5),binding result [4]
B1,~0.01 µg/mL,~6 nM,~6 nM,~0.02 µg/mL,,
B2,,~7 nM,~7 nM,~0.009 µg/mL,0.15 OD,
B3,,~4 nM,~4 nM,~0.01 µg/mL,,
B4,,,,,,binds

# Source: patent US20250250335A1 (SHENGHE CHINA BIOPHARMACEUTICAL, published 2025)
